# B1: Sf6 terminase small subunit gp1 R48A mutant (natural protein)
# chain: MATEPKAGRPSDYMPEVADDICSLLSSGESLLKVCKRPGMPDKSTVFAWLAKHEDFRDKYAKATEARADSIFEEIFEIADNAIPDAAEVAKARLRVDTRKWALARMNPRKYGDKVTNELVGKDGGAIQIETSPMSTLFGK
# B2: Sf6 terminase small subunit gp1 K59E mutant (natural protein)
# chain: MATEPKAGRPSDYMPEVADDICSLLSSGESLLKVCKRPGMPDKSTVFRWLAKHEDFRDEYAKATEARADSIFEEIFEIADNAIPDAAEVAKARLRVDTRKWALARMNPRKYGDKVTNELVGKDGGAIQIETSPMSTLFGK
# B3: Sf6 terminase small subunit gp1 E73A mutant (natural protein, Shigella phage Sf6)
# chain: MATEPKAGRPSDYMPEVADDICSLLSSGESLLKVCKRPGMPDKSTVFRWLAKHEDFRDKYAKATEARADSIFAEIFEIADNAIPDAAEVAKARLRVDTRKWALARMNPRKYGDKVTNELVGKDGGAIQIETSPMSTLFGK
# B4: Sf6 terminase small subunit gp1 D19R mutant (natural protein, Shigella phage Sf6, UniProt Q716H4 1-140, looked up)
# chain: MATEPKAGRPSDYMPEVARDICSLLSSGESLLKVCKRPGMPDKSTVFRWLAKHEDFRDKYAKATEARADSIFEEIFEIADNAIPDAAEVAKARLRVDTRKWALARMNPRKYGDKVTNELVGKDGGAIQIETSPMSTLFGK
# Assays:
# crystal structure = biological target: the molecule itself; test: crystal structure
# SEC = biological target: the molecule itself; test: SEC
Protein,binding result (crystal structure),stoichiometry N (SEC)
B1,binds,–
B2,binds,–
B3,–,8
B4,binds,–

# Source: paper PMC3572731 (Journal of molecular biology, 2012)
